Where two headings read alike, the source gives them in different places.
Experiments:
[1] = pigs, from a previous study (8), cited from earlier work
[2] = Hydrolysis (release kinetics) of dextran ester prodrugs in aqueous buffer solution; format: physicochemical; settings: for t(50%) at pH 7.40 and 37°C: 0.05 M phosphate buffer pH 7.40, 37°C; for t(10%) / Arrhenius equation: pH 4.48; for t(10%): time for 10% degradation, calculated from Arrhenius equations; for Ea: hydrolysis at pH 4.48, from slopes of Arrhenius type plots; for Arrhenius equation: kobs in hours⁻¹, T in degrees Kelvin; for kobs: ionic strength 0.5
Procedure: Release kinetics of the parent drug compounds from the corresponding dextran prodrugs of this invention was carried out in aqueous buffer solution over the pH range 4.5 - 10.0 at 37°C (and in order to determine the activation energies, at pH 4.5, from Arrhenius type plots at 50, 60, 65 and 70°C). […] The 1. order rate constants were derived from the slope of linear plots of log(B∞ -Bt) versus time and for the slow reactions by employing the initial rate method (e.g. (dBt/dt)i = kobsAo), where B∞ and Bt refer to the concentrations of regenerated parent drug at infinity and time t, respectively. (dBt/dt)i repre­sents the initial rate of parent drug formation, whereas kobs and Ao are the pseudo-first-order rate constant and the initial dextran prodrug concentration, respectively. For the fast reactions the initial concentration of the conjugates was in the range 5 - 25 mg/10 ml and for the slow reactions in the range 50 - 250 mg/10 ml. At various times an aliquot of the solutions was withdrawn and analyzed by HPLC for liberated free drug and in some cases for intact dextran prodrug.
A HPLC method was used for the determination of the generated free NSAIDs (the HPLC procedure was further used for determination of the degree of substitution of the polysaccharide prodrugs). […] The flow rate was 1.0 ml/min and the column effluent was monitored at 266 nm. […] Quantitation of the compounds was done by measurements of peak heights in relation to those of standards chromatographed under identical conditions.

[3] = Water solubility of the conjugates (25°C)

Molecule: COc1ccc2cc([C@H](C)C(=O)O)ccc2c1 [NAPROXEN, (+)-2-(6-methoxy-2-napthyl)propionic acid]
- β ([1]; i.v., 3.6 mg naproxen equivalents): 0.048 h⁻¹
- β ([1]; naproxen in plasma, p.o.): 0.049 h⁻¹

Molecule: O-[2-(3-Benzoylphenyl)propionyl]-dextran T-10 [Example 51]
- t(50%) at pH 7.40 and 37°C [2]: 93 hours
- water-solubility [3]: > 20 % w/v

Molecule: O-[2-(3-Benzoylphenyl)propionyl]-dextran T-500 [Example 52]
- t(50%) at pH 7.40 and 37°C [2]: 91 hours
- water-solubility [3]: > 20 % w/v

Molecule: O-[2-(4-Isobutylphenyl)propionyl]-dextran T-10 [Example 54]
- t(50%) at pH 7.40 and 37°C [2]: 140 hours
- water-solubility [3]: > 20 % w/v

Molecule: O-[2-(4-Isobutylphenyl)propionyl]-dextran T-70 [Example 53]
- t(50%) at pH 7.40 and 37°C [2]: 144 hours
- t(10%) ([2]; 5°C): 31.5 years
- t(10%) ([2]; 25°C): 1.68 years
- Ea [2]: 24.14 kcal/mol
- Arrhenius equation [2]: 1n kobs =28.9 - 12,140/T (n = 5, r = 0.97)

Molecule: O-[2-(4-Isobutylphenyl)propionyl]-dextran T-500 [Example 55]
- t(50%) at pH 7.40 and 37°C [2]: 141 hours
- water-solubility [3]: > 20 % w/v

Molecule: O-[3-(11β,17-dihydroxy-6α-methylpregna-1,4-diene-3,20-dione-21-oxycarbonyl)propionyl]-dextran T-40 [Example 47]
- water-solubility [3]: > 20 % w/v

Molecule: O-[3-(11β,17-dihydroxy-6α-methylpregna-1,4-diene-3,20-dione-21-oxycarbonyl)propionyl]-dextran T-70 [Example 46]
- water-solubility [3]: > 20 % w/v

Molecule: O-[3-(11β,17-dihydroxy-6α-methylpregna-1,4-diene-3,20-dione-21-oxycarbonyl)propionyl]-dextran T-500 [Example 48]
- water-solubility [3]: > 20 % w/v

Molecule: O-[3-(11β,17-dihydroxy-pregn-4-ene-3,20-dione-21-oxycarbonyl)propionyl]-dextran T-70 [Example 49]
- water-solubility [3]: > 20 % w/v

Molecule: O-[[2-(2,6-dichloroanilino)phenyl]acetyl]-dextran T-10 [Example 60]
- water-solubility [3]: > 20 % w/v

Molecule: O-[[2-(2,6-dichloroanilino)phenyl]acetyl]-dextran T-70 [Example 59]
- t(10%) ([2]; 5°C): 21.3 years
- t(10%) ([2]; 25°C): 0.65 years
- Ea [2]: 28.73 kcal/mol
- Arrhenius equation [2]: 1n kobs = 37.6 - 14,450/T (n = 5, r = 0.99)
- kobs ([2]; pH 9.54, 37°C): 3.01 h⁻¹
- water-solubility [3]: > 20 % w/v

Molecule: O-[[2-(2,6-dichloroanilino)phenyl]acetyl]-dextran T-500 [Example 61]
- water-solubility [3]: > 20 % w/v

Molecule: O-[±)-2-(3-phenoxyphenol)propionyl]-dextran T-10 [Example 57]
- t(50%) at pH 7.40 and 37°C [2]: 128 hours
- water-solubility [3]: > 20 % w/v

Molecule: O-[±)-2-(3-phenoxyphenol)propionyl]-dextran T-70 [Example 56]
- t(50%) at pH 7.40 and 37°C [2]: 130 hours
- t(10%) ([2]; 5°C): 59.7 years
- t(10%) ([2]; 25°C): 2.72 years
- Ea [2]: 25.41 kcal/mol
- Arrhenius equation [2]: 1n kobs = 30.6 - 12,790/T (n = 5, r = 0.99)
- kobs ([2]; pH 10.00, 37°C): 1.67 h⁻¹
- water-solubility [3]: > 20 % w/v

Molecule: O-[±)-2-(3-phenoxyphenol)propionyl]-dextran T-500 [Example 58]
- t(50%) at pH 7.40 and 37°C [2]: 131 hours
- water-solubility [3]: > 20 % w/v
